In assay [1] the target is T1, human carbonic anhydrase IX (CAIX) (human, UniProt Q16790 38-414). The assay can be described thus: SPR (Biacore T200), single cycle kinetics; antibody in HEK EBNA supernatant captured on Protein G chip, CAIX as analyte.
Experimental: All single cycle kinetic experiments were run at 25° C. with HBS-P+ running buffer (pH 7.4) (GE Healthcare, Little Chalfont, UK). For direct comparison, all antibodies were captured on a Protein G chip (GE Healthcare, Uppsala, Sweden).
Antibodies were diluted in running buffer to a final concentration of 0.5 μg/ml, based on concentrations assessed by ELISA titre. At the start of each cycle, antibodies were loaded onto Fc2, Fc3 and Fc4 of the Protein G chip (GE Healthcare, Little Chalfont, UK). IgGs were captured at a flow rate of 10 μl/min to give an immobilisation level (RL) of ˜79 RU, the theoretical value to obtain an Rmax of ˜50 RU. The surface was then allowed to stabilise. Single cycle kinetic data was obtained with Carbonic Anhydrase IX (CAIX, Stratech, Newmarket, UK) as the analyte at a flow rate of 30 μl/min to minimise any potential mass transport limitations. […] The signal from the reference channel Fc1 (no antibody) was subtracted from that of Fc2, Fc3 and Fc4 to correct for differences in non-specific binding to a reference surface. […] The association phase for the four injections of increasing concentrations of CAIX was monitored for 200 seconds each time and a single dissociation phase was measured for 300 seconds following the last injection of CAIX. Regeneration of the Protein G surface was conducted using an injection of 10 mM glycine-HCL pH 1.5 followed by an injection of 10 mM glycine-HCL pH 1.5 containing 0.5% P20.
Assay [2] has as its target T1, human carbonic anhydrase IX (CAIX). The experiment in a line: Biacore multicycle kinetic analysis (conclusion of Example 1).
Experimental: (§1) The purified antibodies were diluted to a concentration of 1 μg/ml in HBS-P+. […] Following capture, the surface was allowed to stabilise. Kinetic data was obtained using a flow rate of 30 μl/min to minimise any potential mass transfer effects. For the kinetics analysis, carbonic anhydrase IX (CAIX) was used. Multiple repeats of the blank (CAIX) and a repeat of a single concentration of the analyte were programmed into the kinetic run in order to check the stability of both the surface and analyte over the kinetic cycles. For kinetic analysis, a two-fold dilution range was selected from 50 nM to 0.078 nM CAIX. The association phase of CAIX was monitored for 280 seconds and the dissociation phase was monitored for 300 seconds. Regeneration of the Protein G surface was conducted using an injection of 10 mM glycine-HCL pH 1.5 followed by an injection of 10 mM glycine-HCL pH 1.5 containing 0.5% P20. The signal from the reference channel Fc1 was subtracted from that of Fc2, Fc3 and Fc4 to correct for differences in non-specific binding to a reference surface, and a global Rmax parameter was used in the 1-to-1 binding model. The relative KD was calculated by dividing the KD of the humanised variants by that of the chimeric antibody on the same chip.
The target is the same in assay [3]. The assay can be described thus: SPR (Biacore T200), multicycle kinetics; purified CHO-expressed antibody captured on Protein G chip, CAIX as analyte.
Experimental: as §1

B1: Girentuximab humanised VH1/Vκ1 IgG1 (antibody, V domains shown)
VH: DVKLVESGGGLVKPGGSLRLSCAASGFTFSNYYMSWVRQAPGKGLELVAAINSDGGITYYLDTVKGRFTISRDNAKNTLYLQMSSLKSEDTALYYCARHRSGYFSMDYWGQGTSVTVSS
VL: DIVMTQSPSFLSASVGDRVTITCKASQNVVSAVAWYQQKPGQAPKLLIYSASNRYTGVPDRFTGSGSGTDFTLTISSLQSEDLADYFCQQYSNYPWTFGGGTKVEIKR
For the molecule B1, the “relative KD (against the reference chimeric VH0/Vκ0 IgG1)” value in assay [1] is at most 2 fold.

B2: Girentuximab humanised VH4/Vκ4 IgG1 (H310A, H435Q) (antibody)
heavy: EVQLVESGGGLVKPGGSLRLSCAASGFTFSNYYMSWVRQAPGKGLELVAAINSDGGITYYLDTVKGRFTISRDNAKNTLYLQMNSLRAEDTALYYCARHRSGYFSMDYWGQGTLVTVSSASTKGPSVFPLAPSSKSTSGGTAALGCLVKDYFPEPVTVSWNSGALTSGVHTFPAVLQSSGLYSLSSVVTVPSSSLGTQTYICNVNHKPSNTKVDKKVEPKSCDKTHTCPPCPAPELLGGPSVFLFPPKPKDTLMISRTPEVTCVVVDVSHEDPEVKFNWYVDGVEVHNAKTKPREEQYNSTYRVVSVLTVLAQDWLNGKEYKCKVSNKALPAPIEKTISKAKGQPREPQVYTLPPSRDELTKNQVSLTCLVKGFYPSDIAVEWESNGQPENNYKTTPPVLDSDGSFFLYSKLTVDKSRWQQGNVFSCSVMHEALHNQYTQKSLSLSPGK
light: DIQMTQSPSSLSASVGDRVTITCKASQNVVSAVAWYQQKPGQAPRLLIYSASNRYTGVPDRFSGSGSGTDFTLTISSLQAEDLADYYCQQYSNYPWTFGGGTKVEIKRTVAAPSVFIFPPSDEQLKSGTASVVCLLNNFYPREAKVQWKVDNALQSGNSQESVTEQDSKDSTYSLSSTLTLSKADYEKHKVYACEVTHQGLSSPVTKSFNRGEC
Turning to B2, in assay [2], the “binding relative to VH0/Vκ0 with the same IgG backbone” value (“binding relative to VH0/Vκ0” below) is at most 2 fold. Also, in assay [3], the “relative KD (KD of the variant divided by KD of the chimeric antibody with the same IgG constant domain)” value was at most 2 fold.

B3: Girentuximab humanised VH1/Vκ4 IgG1 (antibody, V domains shown)
VH: DVKLVESGGGLVKPGGSLRLSCAASGFTFSNYYMSWVRQAPGKGLELVAAINSDGGITYYLDTVKGRFTISRDNAKNTLYLQMSSLKSEDTALYYCARHRSGYFSMDYWGQGTSVTVSS
VL: DIQMTQSPSSLSASVGDRVTITCKASQNVVSAVAWYQQKPGQAPRLLIYSASNRYTGVPDRFSGSGSGTDFTLTISSLQAEDLADYYCQQYSNYPWTFGGGTKVEIKR
On to B3, for which the “relative KD (against the reference chimeric VH0/Vκ0 IgG1)” value in assay [1] is at most 2 fold.

B4: Girentuximab humanised VH5/Vκ5 IgG1 (antibody, V domains shown)
VH: EVQLVESGGGLVKPGGSLRLSCAASGFTFSNYYMSWVRQAPGKGLEWVAAINSDGGITYYLDTVKGRFTISRDNAKNTLYLQMNSLRAEDTALYYCARHRSGYFSMDYWGQGTLVTVSS
VL: DIQMTQSPSSLSASVGDRVTITCKASQNVVSAVAWYQQKPGQAPRRLIYSASNRYTGVPDRFSGSGSGTDFTLTISSLQAEDLADYYCQQYSNYPWTFGGGTKVEIKR
As for B4, the binding result in assay [1] is recorded as “binds”.

B5: Girentuximab humanised VH4/Vκ3 IgG1 (H310A, H435Q) (antibody)
heavy: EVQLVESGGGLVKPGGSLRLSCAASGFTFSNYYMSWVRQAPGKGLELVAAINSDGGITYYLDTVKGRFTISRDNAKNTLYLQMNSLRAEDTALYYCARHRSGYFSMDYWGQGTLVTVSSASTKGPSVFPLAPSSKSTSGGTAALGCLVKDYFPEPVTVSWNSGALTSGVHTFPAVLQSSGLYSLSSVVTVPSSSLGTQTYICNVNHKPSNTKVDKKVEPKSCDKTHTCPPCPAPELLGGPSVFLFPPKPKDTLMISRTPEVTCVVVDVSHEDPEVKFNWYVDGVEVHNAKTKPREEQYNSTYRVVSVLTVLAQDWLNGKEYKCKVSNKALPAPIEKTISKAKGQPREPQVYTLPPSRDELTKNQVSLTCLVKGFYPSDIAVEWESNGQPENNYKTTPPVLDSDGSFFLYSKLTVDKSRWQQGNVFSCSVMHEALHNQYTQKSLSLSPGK
light: DIQMTQSPSSLSASVGDRVTITCKASQNVVSAVAWYQQKPGQAPRLLIYSASNRYTGVPDRFSGSGSGTDFTLTISSLQAEDLADYFCQQYSNYPWTFGGGTKVEIKRTVAAPSVFIFPPSDEQLKSGTASVVCLLNNFYPREAKVQWKVDNALQSGNSQESVTEQDSKDSTYSLSSTLTLSKADYEKHKVYACEVTHQGLSSPVTKSFNRGEC
As to B5, in assay [2], the “binding relative to VH0/Vκ0” value was at most 2 fold. In addition, in assay [3], the “relative KD (KD of the variant divided by KD of the chimeric antibody with the same IgG constant domain)” value is at most 2 fold.

B6: Girentuximab humanised VH3/Vκ1 IgG1 (antibody)
heavy: not shown
light: DIVMTQSPSFLSASVGDRVTITCKASQNVVSAVAWYQQKPGQAPKLLIYSASNRYTGVPDRFTGSGSGTDFTLTISSLQSEDLADYFCQQYSNYPWTFGGGTKVEIKRTVAAPSVFIFPPSDEQLKSGTASVVCLLNNFYPREAKVQWKVDNALQSGNSQESVTEQDSKDSTYSLSSTLTLSKADYEKHKVYACEVTHQGLSSPVTKSFNRGEC
B6: in assay [1], the “relative KD (against the reference chimeric VH0/Vκ0 IgG1)” value was at most 2 fold.

B7: Girentuximab humanised VH5/Vκ4 IgG1 (antibody, V domains shown)
VH: EVQLVESGGGLVKPGGSLRLSCAASGFTFSNYYMSWVRQAPGKGLEWVAAINSDGGITYYLDTVKGRFTISRDNAKNTLYLQMNSLRAEDTALYYCARHRSGYFSMDYWGQGTLVTVSS
VL: DIQMTQSPSSLSASVGDRVTITCKASQNVVSAVAWYQQKPGQAPRLLIYSASNRYTGVPDRFSGSGSGTDFTLTISSLQAEDLADYYCQQYSNYPWTFGGGTKVEIKR
B7: the binding result in assay [1] is reported as “binds”.

B8: Girentuximab humanised VH1/Vκ5 IgG1 (antibody, V domains shown)
VH: DVKLVESGGGLVKPGGSLRLSCAASGFTFSNYYMSWVRQAPGKGLELVAAINSDGGITYYLDTVKGRFTISRDNAKNTLYLQMSSLKSEDTALYYCARHRSGYFSMDYWGQGTSVTVSS
VL: DIQMTQSPSSLSASVGDRVTITCKASQNVVSAVAWYQQKPGQAPRRLIYSASNRYTGVPDRFSGSGSGTDFTLTISSLQAEDLADYYCQQYSNYPWTFGGGTKVEIKR
For the molecule B8, the binding result in assay [1] is “binds”.

B9: Girentuximab humanised VH3/Vκ5 IgG1 (antibody)
heavy: not shown
light: DIQMTQSPSSLSASVGDRVTITCKASQNVVSAVAWYQQKPGQAPRRLIYSASNRYTGVPDRFSGSGSGTDFTLTISSLQAEDLADYYCQQYSNYPWTFGGGTKVEIKRTVAAPSVFIFPPSDEQLKSGTASVVCLLNNFYPREAKVQWKVDNALQSGNSQESVTEQDSKDSTYSLSSTLTLSKADYEKHKVYACEVTHQGLSSPVTKSFNRGEC
Consider B9, for which the binding result in assay [1] was “binds”.

B10: Girentuximab humanised VH1/Vκ2 IgG1 (antibody, V domains shown)
VH: DVKLVESGGGLVKPGGSLRLSCAASGFTFSNYYMSWVRQAPGKGLELVAAINSDGGITYYLDTVKGRFTISRDNAKNTLYLQMSSLKSEDTALYYCARHRSGYFSMDYWGQGTSVTVSS
VL: DIVMTQSPSSLSASVGDRVTITCKASQNVVSAVAWYQQKPGQAPRLLIYSASNRYTGVPDRFTGSGSGTDFTLTISSLQAEDLADYFCQQYSNYPWTFGGGTKVEIKR
As to B10, the “relative KD (against the reference chimeric VH0/Vκ0 IgG1)” value in assay [1] was at most 2 fold.

B11: Girentuximab humanised VH4/Vκ5 IgG1 (antibody)
heavy: not shown
light: DIQMTQSPSSLSASVGDRVTITCKASQNVVSAVAWYQQKPGQAPRRLIYSASNRYTGVPDRFSGSGSGTDFTLTISSLQAEDLADYYCQQYSNYPWTFGGGTKVEIKRTVAAPSVFIFPPSDEQLKSGTASVVCLLNNFYPREAKVQWKVDNALQSGNSQESVTEQDSKDSTYSLSSTLTLSKADYEKHKVYACEVTHQGLSSPVTKSFNRGEC
With B11, the binding result in assay [1] is listed as “binds”.

B12: Girentuximab humanised VH3/Vκ4 IgG1 (H310A, H435Q) (antibody)
heavy: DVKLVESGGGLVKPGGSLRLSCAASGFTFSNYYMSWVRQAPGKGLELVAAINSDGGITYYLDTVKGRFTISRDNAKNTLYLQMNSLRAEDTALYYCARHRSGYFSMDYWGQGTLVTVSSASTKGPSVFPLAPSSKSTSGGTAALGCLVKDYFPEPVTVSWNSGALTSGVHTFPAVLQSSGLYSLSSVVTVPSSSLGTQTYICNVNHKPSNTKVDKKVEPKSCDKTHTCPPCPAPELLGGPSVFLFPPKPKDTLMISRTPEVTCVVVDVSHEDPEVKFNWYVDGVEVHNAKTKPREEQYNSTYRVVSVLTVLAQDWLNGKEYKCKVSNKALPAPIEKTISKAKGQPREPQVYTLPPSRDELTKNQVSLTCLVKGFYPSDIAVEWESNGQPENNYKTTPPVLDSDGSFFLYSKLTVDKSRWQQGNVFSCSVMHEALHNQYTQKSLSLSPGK
light: DIQMTQSPSSLSASVGDRVTITCKASQNVVSAVAWYQQKPGQAPRLLIYSASNRYTGVPDRFSGSGSGTDFTLTISSLQAEDLADYYCQQYSNYPWTFGGGTKVEIKRTVAAPSVFIFPPSDEQLKSGTASVVCLLNNFYPREAKVQWKVDNALQSGNSQESVTEQDSKDSTYSLSSTLTLSKADYEKHKVYACEVTHQGLSSPVTKSFNRGEC
Turning to B12, the “binding relative to VH0/Vκ0” value in assay [2] was at most 2 fold. Also, in assay [3], the “relative KD (KD of the variant divided by KD of the chimeric antibody with the same IgG constant domain)” value was at most 2 fold.

B13: Girentuximab humanised VH1/Vκ3 IgG1 (antibody, V domains shown)
VH: DVKLVESGGGLVKPGGSLRLSCAASGFTFSNYYMSWVRQAPGKGLELVAAINSDGGITYYLDTVKGRFTISRDNAKNTLYLQMSSLKSEDTALYYCARHRSGYFSMDYWGQGTSVTVSS
VL: DIQMTQSPSSLSASVGDRVTITCKASQNVVSAVAWYQQKPGQAPRLLIYSASNRYTGVPDRFSGSGSGTDFTLTISSLQAEDLADYFCQQYSNYPWTFGGGTKVEIKR
With B13, the “relative KD (against the reference chimeric VH0/Vκ0 IgG1)” value in assay [1] was at most 2 fold.

B14: Girentuximab humanised VH5/Vκ2 IgG1 (antibody, V domains shown)
VH: EVQLVESGGGLVKPGGSLRLSCAASGFTFSNYYMSWVRQAPGKGLEWVAAINSDGGITYYLDTVKGRFTISRDNAKNTLYLQMNSLRAEDTALYYCARHRSGYFSMDYWGQGTLVTVSS
VL: DIVMTQSPSSLSASVGDRVTITCKASQNVVSAVAWYQQKPGQAPRLLIYSASNRYTGVPDRFTGSGSGTDFTLTISSLQAEDLADYFCQQYSNYPWTFGGGTKVEIKR
Turning to B14, the binding result in assay [1] was “binds”.

B15: Girentuximab humanised VH4/Vκ1 IgG1 (antibody)
heavy: not shown
light: DIVMTQSPSFLSASVGDRVTITCKASQNVVSAVAWYQQKPGQAPKLLIYSASNRYTGVPDRFTGSGSGTDFTLTISSLQSEDLADYFCQQYSNYPWTFGGGTKVEIKRTVAAPSVFIFPPSDEQLKSGTASVVCLLNNFYPREAKVQWKVDNALQSGNSQESVTEQDSKDSTYSLSSTLTLSKADYEKHKVYACEVTHQGLSSPVTKSFNRGEC
As to B15, the “relative KD (against the reference chimeric VH0/Vκ0 IgG1)” value in assay [1] was at most 2 fold.

B16: Girentuximab humanised VH5/Vκ1 IgG1 (antibody, V domains shown)
VH: EVQLVESGGGLVKPGGSLRLSCAASGFTFSNYYMSWVRQAPGKGLEWVAAINSDGGITYYLDTVKGRFTISRDNAKNTLYLQMNSLRAEDTALYYCARHRSGYFSMDYWGQGTLVTVSS
VL: DIVMTQSPSFLSASVGDRVTITCKASQNVVSAVAWYQQKPGQAPKLLIYSASNRYTGVPDRFTGSGSGTDFTLTISSLQSEDLADYFCQQYSNYPWTFGGGTKVEIKR
As to B16, the binding result in assay [1] is reported as “binds”.

B17: Girentuximab humanised VH5/Vκ3 IgG1 (antibody, V domains shown)
VH: EVQLVESGGGLVKPGGSLRLSCAASGFTFSNYYMSWVRQAPGKGLEWVAAINSDGGITYYLDTVKGRFTISRDNAKNTLYLQMNSLRAEDTALYYCARHRSGYFSMDYWGQGTLVTVSS
VL: DIQMTQSPSSLSASVGDRVTITCKASQNVVSAVAWYQQKPGQAPRLLIYSASNRYTGVPDRFSGSGSGTDFTLTISSLQAEDLADYFCQQYSNYPWTFGGGTKVEIKR
Consider B17, for which the binding result in assay [1] is given as “binds”.

B18: Girentuximab humanised VH4/Vκ4 IgG4 (S228P, L235E, H310A, H435Q) (antibody)
heavy: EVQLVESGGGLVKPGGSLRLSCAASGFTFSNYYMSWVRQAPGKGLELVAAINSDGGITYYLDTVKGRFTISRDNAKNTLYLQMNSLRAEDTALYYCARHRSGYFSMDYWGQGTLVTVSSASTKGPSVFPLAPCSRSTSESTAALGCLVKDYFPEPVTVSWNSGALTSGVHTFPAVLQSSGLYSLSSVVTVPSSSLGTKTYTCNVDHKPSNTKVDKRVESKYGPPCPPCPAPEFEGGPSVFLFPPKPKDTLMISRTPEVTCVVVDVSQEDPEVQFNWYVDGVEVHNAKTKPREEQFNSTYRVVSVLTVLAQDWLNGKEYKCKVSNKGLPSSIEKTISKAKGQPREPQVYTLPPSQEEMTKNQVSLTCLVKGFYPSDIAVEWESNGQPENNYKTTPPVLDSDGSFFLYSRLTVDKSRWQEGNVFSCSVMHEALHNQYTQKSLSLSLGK
light: DIQMTQSPSSLSASVGDRVTITCKASQNVVSAVAWYQQKPGQAPRLLIYSASNRYTGVPDRFSGSGSGTDFTLTISSLQAEDLADYYCQQYSNYPWTFGGGTKVEIKRTVAAPSVFIFPPSDEQLKSGTASVVCLLNNFYPREAKVQWKVDNALQSGNSQESVTEQDSKDSTYSLSSTLTLSKADYEKHKVYACEVTHQGLSSPVTKSFNRGEC
On to B18, for which the “binding relative to VH0/Vκ0” value in assay [2] was at most 2 fold. Also, the “relative KD (KD of the variant divided by KD of the chimeric antibody with the same IgG constant domain)” value in assay [3] is at most 2 fold.

B19: Girentuximab humanised VH3/Vκ4 IgG4 (S228P, L235E, H310A, H435Q) (antibody)
heavy: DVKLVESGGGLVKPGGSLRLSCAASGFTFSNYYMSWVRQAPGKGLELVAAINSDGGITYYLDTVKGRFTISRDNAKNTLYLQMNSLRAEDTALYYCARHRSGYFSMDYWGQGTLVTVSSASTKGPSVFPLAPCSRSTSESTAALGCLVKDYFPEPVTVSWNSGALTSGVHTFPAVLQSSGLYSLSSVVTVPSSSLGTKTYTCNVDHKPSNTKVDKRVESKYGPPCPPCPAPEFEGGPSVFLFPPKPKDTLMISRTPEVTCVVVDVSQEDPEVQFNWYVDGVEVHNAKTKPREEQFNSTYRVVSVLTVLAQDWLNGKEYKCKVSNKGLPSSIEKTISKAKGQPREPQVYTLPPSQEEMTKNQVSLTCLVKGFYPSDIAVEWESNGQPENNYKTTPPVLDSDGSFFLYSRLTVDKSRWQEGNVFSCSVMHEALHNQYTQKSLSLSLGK
light: DIQMTQSPSSLSASVGDRVTITCKASQNVVSAVAWYQQKPGQAPRLLIYSASNRYTGVPDRFSGSGSGTDFTLTISSLQAEDLADYYCQQYSNYPWTFGGGTKVEIKRTVAAPSVFIFPPSDEQLKSGTASVVCLLNNFYPREAKVQWKVDNALQSGNSQESVTEQDSKDSTYSLSSTLTLSKADYEKHKVYACEVTHQGLSSPVTKSFNRGEC
As to B19, in assay [2], the “binding relative to VH0/Vκ0” value was at most 2 fold. The “relative KD (KD of the variant divided by KD of the chimeric antibody with the same IgG constant domain)” value in assay [3] was at most 2 fold.

The values above are taken from patent US20220331457A1 (TELIX INTERNATIONAL, published 2022).
